According to patent publication US20260109763A1 (DENALI THERAPEUTICS, published 2026):
Where two headings read alike, the source gives them in different places.

Experiments:
[1] = target: T1, cynomolgus monkey PILRA extracellular domain (recombinant) (cynomolgus monkey); assay: SPR, Biacore 8K, recombinant ECD
T1 construct: also called cynoPILRA; Cyno PILRA
Experimental: (§1) Antibodies were captured on Biacore™ Series S CM5 sensor chips immobilized with mouse anti-human Fab (human Fab capture kit from GE Healthcare) followed by injections of serial 3-fold dilutions of recombinant ECD reagents at a flow rate of 30 μL/min. Each sample was analyzed using a 3-minute association followed by a 10-minute dissociation. After each injection, the sensor chip was regenerated using a 5 0 mM glycine pH2.0 regeneration buffer. A 1:1 Languir model of simultaneous fitting of kₒₙ and koff was used for kinetics analysis.

[2] = target: T2, human PILRB extracellular domain (recombinant) (human, UniProt Q9UKJ0 20-191); assay: SPR, Biacore 8K, recombinant ECD
T2 construct: also called hPILRB
Experimental: as §1

[3] = target: T3, human PILRA G78 on cells (human, UniProt Q9UKJ1 20-303); assay: cell-based or functional assay
[4] = target: T3, human PILRA G78 on cells; assay: flow cytometry on HEK293 cells expressing hPILRA G78
Experimental: Parental HEK293 cells were labeled with NucBlue Live ReadyProbes Reagent for 30 mins. […] Antibody binding to the cells was detected by FACS and median fluorescence intensity (MFI) was derived from data analysis performed with the FLOJO software (FIGS. 1A-1C).

[5] = target: T4, human PILRA G78 extracellular domain (recombinant hPILRA ECD) (human, UniProt Q9UKJ1 20-197); assay: SPR, Biacore 8K; antibody captured via anti-human Fab, recombinant ECD injected; 1:1 fit;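 also: CM5 sensor chip, ECD analyte in threefold dilution series at 30 µL/min, 3 min association and 10 min dissociation, kon and koff fitted simultaneously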
T4 construct: also called hPILRA G78

[6] = target: T5, human PILRB on cells (human, UniProt Q9UKJ0 20-227); assay: flow cytometry (MFI), CHO-K1 cells expressing hPILRB
T5 construct: Expressed on CHO-K1 cells, or together with DAP12 on HEK293 cells (hPILRB-DAP12 OE HEK293); also called hPILRB; hPILRB-DAP12
Experimental: Antibody binding to the cells was detected by FACS and MFI was derived from data analysis performed with the FLOJO software.

[7] = target: T3, human PILRA G78 on cells; assay: flow cytometry on HEK293 PILRA G78 cells without sialidase treatment
Experimental: (§2) PILRA 78G or PILRA 78R expressing HEK293 cells were treated with SialEXO (Genovis). […] It is a combination of two sialidases acting on α2-3, α2-6 and α2-8 linkages. […] Cells were then washed twice and incubated and stained with NucBlue Live Stain for 30 mins at RT.

[8] = target: T3, human PILRA G78 on cells; assay: flow cytometry on HEK293 PILRA G78 cells with sialidase treatment
Experimental: as §2

[9] = target: T6, human PILRA R78 on cells (human, UniProt Q9UKJ1 20-303); assay: flow cytometry on HEK293 PILRA R78 cells with sialidase treatment; with sialidase treatment
T6 construct: also called hPILRA R78; PILRA 78R
Experimental: as §2
(§3) Following the same protocol, sialidase treatment was also performed on HEK cells expressing PILRA R78.

[10] = target: T6, human PILRA R78 on cells; assay: flow cytometry on HEK293 PILRA R78 cells without sialidase treatment; without sialidase treatment
Experimental: as §2, §3

[11] = target: T1, cynomolgus monkey PILRA extracellular …; assay: SPR, Biacore 8K; antibody captured via anti-human Fab, recombinant ECD injected; 1:1 fit;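 also: CM5 sensor chip, ECD analyte in threefold dilution series at 30 µL/min, 3 min association and 10 min dissociation, kon and koff fitted simultaneously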
[12] = target: T2, human PILRB extracellular domain …; assay: SPR
[13] = target: T3, human PILRA G78 on cells; assay: flow cytometry on HEK293 cells expressing hPILRA G78; remark: listed apart in the source
[14] = target: T3, human PILRA G78 on cells; assay: flow cytometry on PILRA G78 expressing CHO-K1 cells (FIG. 1H)
Experimental: (§4) PILRA G78 or R78 overexpressing HEK293 cells were stained with NucBlue Live cell stain for 30 mins at RT. […] Cell lines were run in duplicate to account for intra-variability, for a total of N=3. The same protocol was used for CHO-K1 cells expressing hPILRA G78.

[15] = target: T6, human PILRA R78 on cells; assay: cell-based or functional assay
[16] = target: T6, human PILRA R78 on cells; assay: flow cytometry on PILRA R78 expressing HEK293 cells (FIG. 1F); HEK293 cells expressing PILRA R78
Experimental: as §4

[17] = target: T4, human PILRA G78 extracellular domain …; assay: SPR, Biacore 8K; hPILRA ECD; antibody with wild-type Fc
Experimental: as §1
Characterization for binding affinities of the humanized antibodies to hPILRA ECD were measured by SPR using a Biacore 8K instrument (Table 7).

[18] = target: T3, human PILRA G78 on cells; assay: cell-based or functional assay; remark: listed apart in the source
[19] = target: T1, cynomolgus monkey PILRA extracellular …; assay: SPR
[20] = target: T4, human PILRA G78 extracellular domain …; assay: SPR
[21] = target: T7, human PILRA R78 extracellular domain (recombinant) (human, UniProt Q9UKJ1 20-197); assay: SPR
T7 construct: also called hPILRA R78

[22] = target: T2, human PILRB extracellular domain …; assay: SPR; remark: listed apart in the source

T4 sequence (Q9UKJ1 20-197 R78G limits assumed): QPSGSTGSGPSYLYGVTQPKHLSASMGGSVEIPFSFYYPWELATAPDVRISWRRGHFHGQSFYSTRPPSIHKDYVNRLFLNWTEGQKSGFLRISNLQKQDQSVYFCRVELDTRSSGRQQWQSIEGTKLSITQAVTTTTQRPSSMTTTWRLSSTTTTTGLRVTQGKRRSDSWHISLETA
T1 sequence (chain, as listed by the source limits assumed): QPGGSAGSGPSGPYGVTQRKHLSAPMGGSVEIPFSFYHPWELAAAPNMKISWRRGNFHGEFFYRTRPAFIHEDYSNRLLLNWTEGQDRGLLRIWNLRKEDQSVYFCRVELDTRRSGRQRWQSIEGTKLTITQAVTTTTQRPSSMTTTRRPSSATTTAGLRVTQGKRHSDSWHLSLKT
T5 sequence (Q9UKJ0 20-227 limits assumed): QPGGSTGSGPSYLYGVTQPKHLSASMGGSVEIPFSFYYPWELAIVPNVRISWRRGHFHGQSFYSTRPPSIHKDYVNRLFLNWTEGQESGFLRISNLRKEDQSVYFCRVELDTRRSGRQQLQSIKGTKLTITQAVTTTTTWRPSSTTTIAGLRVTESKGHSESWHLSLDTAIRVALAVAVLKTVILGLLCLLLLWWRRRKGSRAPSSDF
T3 sequence (Q9UKJ1 20-303 R78G limits assumed): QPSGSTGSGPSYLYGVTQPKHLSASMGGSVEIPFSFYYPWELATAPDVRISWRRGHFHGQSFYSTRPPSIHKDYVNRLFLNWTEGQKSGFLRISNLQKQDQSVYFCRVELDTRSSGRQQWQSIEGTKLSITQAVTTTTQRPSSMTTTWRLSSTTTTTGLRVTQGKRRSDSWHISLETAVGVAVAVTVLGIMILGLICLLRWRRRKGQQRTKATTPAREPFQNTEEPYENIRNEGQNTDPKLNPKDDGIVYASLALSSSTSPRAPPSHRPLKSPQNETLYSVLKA
T2 sequence (Q9UKJ0 20-191 limits assumed): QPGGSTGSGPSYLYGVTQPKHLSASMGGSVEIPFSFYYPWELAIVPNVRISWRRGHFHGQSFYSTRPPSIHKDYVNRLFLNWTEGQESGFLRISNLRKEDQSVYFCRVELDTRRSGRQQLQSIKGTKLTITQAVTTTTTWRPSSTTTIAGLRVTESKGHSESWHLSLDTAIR
T6 sequence (Q9UKJ1 20-303 limits assumed): as the sequence (Q9UKJ1 20-303 R78G limits assumed) above, with G59R counted along it
T7 sequence (Q9UKJ1 20-197 limits assumed): as the sequence (Q9UKJ1 20-197 R78G limits assumed) above, with G59R counted along it

B1: Anti-PILRA antibody clone 10 (antibody, V domains shown)
VH: EVQLVQSGAEIRKPGESLKISCKGSGYSFTTYWIAWVRQMPGKGLEWMGIIYPGDSDTRYSPSFQGQVTISADKSITTAYLQWSSLKASDTGIYYCARTYYYFSGSHWDAFDIWGQGTMVTVSS
VL: DIQMTQSPSSVSAYVGDRVTITCRASQDIRDCLAWYQQKPGKAPKFLIYAASSFQSGVPSGFSGSGSGTDFTLTVTSLQPEDSATYYCQQTHSFPYTFGQGTKLEIK
notes: also called Ab; Clone 10
binding result [1]: no binding | binding result [2]: no binding | pSTAT3 Y705 induction, EC50 (nM) [3]: 5.69 nM | pSTAT3 Y705 induction, Fold Over Background [3]: 26.7 fold | EC50 [4]: 1.28 nM | Kd [5]: 61 nM

B2: Anti-PILRA antibody clone 5 (antibody, human IgG1, kappa, L234A L235A, V domains shown)
VH: QVQLVQSGAEVKKPGASVRVSCKASGYTFIGFYIHWVRQAPGQGLEWMGWINPESGDTTYAQKFQGRVTMTTDTSINTAYMDLNRLRSDDSAVYFCARGNWNFPDTFDFWGQGTMVIVSS
VL: DIQMTQSPSSLSASVGDRVTITCRSSQSISIYLNWHQQIPGKAPKLLIYVASSLQSGIPSRFSGRGSGTEFTLTISSLQPEDFATYYCQQSYSAPFTFGPGTKVDIKR
notes: also called Ab; Clone 5; Ab.5
binding result [6]: no binding (tested: 100 nM) | EC50 [7]: 17 nM | binding result [2]: no binding | EC50 [8]: 9.8 nM | EC50 [9]: 0.9 nM | EC50 [10]: 1.3 nM | pSTAT3 Y705 induction, EC50 (nM) [3]: 1.51 nM | pSTAT3 Y705 induction, Fold Over Background [3]: 15.8 fold | EC50 [4]: 32.5 nM | Kd [11]: 19 nM | Kd [5]: 0.66 nM

B3: Anti-PILRA antibody clone 11 (antibody, V domains shown)
VH: EVKLVESGGGLVRPGGSQKLSCAVSGFAFSGYDMSWVRQTPEKRLEWVATISNGGRHTYYPDSVKGRFTISRDNARNTLYLQMSSLRSEDTALYYCARQKTWDVHAMDYWGQGTSVTVSS
VL: QLVLTQSSSASFSLGASAKLTCTLSSQHSTYTIEWYQQQPLKPPKYVMELKKDGSHSTGDGIPDRFSGSSSGADRYLSISNIQPEDEAIYICGVGDTIKEQFVYVFGGGTKVTVL
binding result [2]: no binding | pSTAT3 Y705 induction, Fold Over Background [3]: 1.42 fold | EC50 [4]: 10.5 nM | Kd [11]: 110 nM | Kd [5]: 140 nM

B4: Anti-PILRA antibody clone 9 (antibody, V domains shown)
VH: QVQLQESGPGLVKPSGTLSLTCAVSGGSISSNNWWSWVRQPPGKGLEWIGEIYHFGTTTYNPSLKSRVTISVDKSKNQFSLKLSSLTAADTAVYYCARTLRDFYYYMDVWGKGTTVTVSS
VL: DIHMTQSPSSLSASVGDRVTITCRTSQNINTYLNWYQQRPGRAPKLLIYAASSLQSGVPSRFSGSGSGTDFILSISSLQPEDFATYYCQQSFNIPLTFGGGTKVEIK
notes: also called Ab; Clone 9
binding result [1]: no binding | binding result [2]: no binding | pSTAT3 Y705 induction, EC50 (nM) [3]: 5.93 nM | pSTAT3 Y705 induction, Fold Over Background [3]: 16.9 fold | EC50 [4]: 1.28 nM | Kd [5]: 1.6 nM

B5: Anti-PILRA antibody clone 4 (antibody, human IgG1, kappa, L234A L235A, V domains shown)
VH: EVQLVESGGGLVQPGRSLRLSCAASGFTFDDYAIHWVRQAPGKGLEWVSGMSWNSGSIGYGDSVKGRFTISRDNAKNSLYLQMNSLRAEDTAFYYCAKDKSIGAAGRFDSWGQGTLVTVSS
VL: not shown
notes: also called Ab; Clone 4; Ab.4
binding result [6]: no binding (tested: 100 nM) | binding result [2]: no binding | pSTAT3 Y705 induction, EC50 (nM) [3]: 1.98 nM | pSTAT3 Y705 induction, Fold Over Background [3]: 14.7 fold | EC50 [4]: 24.9 nM | Kd [11]: 7.4 nM | Kd [5]: 8.3 nM

B6: Anti-PILRA antibody clone 1 (antibody, V domains shown)
VH: EVQLVESGGGLVQPGRSLRLSCAVSGFTFDDYAMHWVRQAPGKGLEWVSGFSWNSGSIGYPDSVKGRFTISRDNAKNSLYLQMNSLRAEDTAFYYCAKDKSISAAGRFDYWGQGTLVTVSS
VL: DIQMTQSPSSLSASVGDRVTITCQASRRINNYLNWYQQKPGKAPKLLIYDASNLETGVPSRFTGSGSGTDFTLTISSLQPEDIATYYCQQYDNLPLTFGGGTKIKIK
binding result [6]: no binding (tested: 100 nM) | EC50 [7]: 6.8 nM | binding result [2]: no binding | EC50 [8]: 1.8 nM | EC50 [9]: 5.6 nM | EC50 [10]: 14 nM | pSTAT3 Y705 induction, EC50 (nM) [3]: 5.66 nM | pSTAT3 Y705 induction, Fold Over Background [3]: 16.2 fold | EC50 [4]: 13.8 nM | Kd [11]: 0.91 nM | Kd [5]: 2.3 nM

B7: Anti-PILRA antibody clone 36 (antibody, V domains shown)
VH: EVQLVQSGAEVKKPGASVKVSCKASGYTFTEYYMYWVRQAPGQGLELIGRIDPEDGGTDYIEKFKNRVTLTADTSTSTAYLELSSLRSEDTAVYYCATTIRGTVFAFWGQGTLVTVSS
VL: DIQMTQSPSSLSASVGDRVTITCRPSEDIYNGLAWYQQKPGKAPKLLIYNANSLHTGVPSRFSGSGSGTDYTLTISSLQPEDFATYFCQQYYDYPLTFGQGTKVEIK
notes: Humanized
Kd [12]: 42 to 97 nM

B8: Anti-PILRA antibody clone 23 (antibody, V domains shown)
VH: EVQLVQSGAEVKKPGASVKVSCKASGYTFTEYYMYWVRQAPGQGLELIGRIDPEDGGTDYVEKFKNRATLTADTSTSTAYLELSSLRSEDTAVYFCASTIRGTVFVYWGQGTLVTVSS
VL: DIQMTQSPSSLSASVGDRVTITCRPSEDIYNGLAWYQQKPGKAPKLLIYNANSLHTGVPSRFSGSGSGTDYTLTISSLQPEDFATYYCQQYYDYPLTFGQGTKVEIK
notes: Humanized; also called Ab.23
EC50 [13]: 21.4 nM | EC50 [14]: 18.2 nM | pSTAT3 S727 induction, EC50 (nM) [15]: 14.6 nM | pSTAT3 S727 induction, Fold Over Background [15]: 28.5 fold | pSTAT3 Y705 induction, EC50 (nM) [15]: 7.55 nM | pSTAT3 Y705 induction, Fold Over Background [15]: 36.2 fold | EC50 [16]: 3.7 nM | Kd [17]: 0.495 nM | pSTAT3 S727 induction, EC50 (nM) [18]: 20.1 nM | pSTAT3 S727 induction, Fold Over Background [18]: 23.6 fold | pSTAT3 Y705 induction, EC50 (nM) [18]: 12.2 nM | pSTAT3 Y705 induction, Fold Over Background [18]: 31.4 fold | Kd [19]: 7.3 nM | Kd [20]: 2.8 nM | Kd [21]: 47 nM | Kd [22]: 117 nM

B9: Anti-PILRA antibody clone 37 (antibody, V domains shown)
VH: EVQLVQSGAEVKKPGASVKVSCKASGYTFTEYYMYWVRQAPGQGLELIGRIDPEDGGTDYIEKFKNRVTLTADTSTSTAYLELSSLRSEDTAVYYCATTIRGTVFAFWGQGTLVTVSS
VL: DIQMTQSPSSLSASVGDRVTITCRASEDIFNGLAWYQQKPGKSPKLLIYNAKTLHTGVPSRFSGSGSGTDYTLTISSLQPEDFATYYCQQYYDYPLTFGQGTKVEIK
notes: Humanized
Kd [12]: 100 to 150 nM

B10: Anti-PILRA antibody clone 15 (antibody, V domains shown)
VH: EVQLVQSGAEVKKPGASVKVSCKASGYTFTEYYMYWVRQAPGQGLELIGRIDPEDGGTDYIEKFKNRSTLTADTSTSTAYLELSSLRSEDTAVYFCATTIRGTVFAFWGQGTLVTVSS
VL: DIQMTQSPSSLSASVGDRVTITCRASEDIFNGLAWYQQKPGKSPKLLIYNAKTLHTGVPSRFSGSGSGSDYTLTISSLQPEDFATYFCQQYYDYPLTFGQGTKVEIK
notes: Humanized; also called Ab.15
EC50 [13]: 11.2 nM | EC50 [14]: 9 nM | pSTAT3 S727 induction, EC50 (nM) [15]: 12.7 nM | pSTAT3 S727 induction, Fold Over Background [15]: 24.8 fold | pSTAT3 Y705 induction, EC50 (nM) [15]: 5.66 nM | pSTAT3 Y705 induction, Fold Over Background [15]: 38.2 fold | EC50 [16]: 2.7 nM | Kd [17]: 0.917 nM | pSTAT3 S727 induction, EC50 (nM) [18]: 17.5 nM | pSTAT3 S727 induction, Fold Over Background [18]: 32.2 fold | pSTAT3 Y705 induction, EC50 (nM) [18]: 16.9 nM | pSTAT3 Y705 induction, Fold Over Background [18]: 33.5 fold | Kd [19]: 0.72 nM | Kd [20]: 0.65 nM | Kd [21]: 10 nM | Kd [22]: 95 nM
